What was measured:
[1] = target: mature NIH45-46 IgG (human); assay: BLI
[2] = target: 426c Env trimeric gp140 (wild type) (HIV-1 clade C, isolate 426c (HVTN503 participant)) (UniProt M4Q8P8); assay: BLI

Row | Substance | Kd [1] [nM] | Kd [2] [nM]
1 | 426c Env trimeric gp140 lacking the NLGS at position 276 (N276D) (natural protein) | 3.66 | –
2 | mature NIH45-46 IgG (antibody) | – | 10.6

— article PMC3620356
